Target: the molecule itself
Experiment: size exclusion chromatography (Superose 6), non-denaturing; self-association
Method: Size Exclusion Chromatography. Size exclusion chromatography (SEC) was performed by FPLC using a 24 ml Superose 6 (S6) column (GE Healthcare, Pittsburgh, Pa.). The chromoproteins (100 μl of a 5 mg/ml sample) were first purified through the phenyl HP step, dissolved in 30 mM Tris-HCl (pH 8.0) and 200 mM NaCl, and either loaded onto the column as Pr or immediately following saturating irradiation of the sample with red light (630 nm). Absorption spectra were recorded before and after SEC to verify that the chromoproteins remained enriched in the desired states (Pr or Pfr).
SEC has shown that most, if not all, Phys are dimeric with their binding interface(s) involving one or more regions, including the GAF domain in DrBphP, the PAS-GAF-PHY domain in Syn-Cph1, and the C-terminal HK and HK-related regions in microbial and higher plants Phys. […] Whereas the GAF domain alone as Pr behaved as a monomer of 22 kDa, consistent with its calculated molecular mass of 23.3 kDa, the GAF-PHY fragment behaved as a dimer species at 105-kDa, nearly twice the size of its calculated mass of 48.4 kDa (FIG. 23). […] The predicted molecular masses of monomeric SyB-Cph1 (GAF) and SyB-Cph1 (GAF-PHY) polypeptides are 23.3 kDa and 48.4 kDa, respectively, while the apparent molecular masses measured by SEC are 22 and 106 kDa, respectively.

B1: SyB-Cph1 (GAF) chromoprotein assembled with PCB (other)
chain: MDTETWAAAARPSRDALINRITHQIRQSLELDQILRATVEEVRAFLGTDRVKVYRFDPEGHGTVVAEARGGERLPSLLGLTFPAGDIPEEARRLFRLAQVRVIVDVEAQSRSISQPESWGLSARVPLGEPLQRPVDPCHVHYLKSMGVASSLVVPLMHHQELWGLLVSHHAEPRPYSQEELQVVQLLADQVSIAIAQAELHHHHHH
modifications: phycocyanobilin (PCB) covalently bound at Cys-138
notes: It ran as a monomer on SEC, both as Pr and after saturating red light; also called CYB GAF; BG
**Q.** Does B1 bind?
**A.** Result: no binding (tested: 100 µl of a 5 mg/ml sample loaded)

From US20090061444A1 (WISCONSIN ALUMNI RESEARCH FOUNDATION, published 2009)
